Two sequences from paper PMC4265319 can be followed below.

For data set [1], the target named is T1, KdpE (Staphylococcus aureus) (UniProt Q2FWH6).
T1 sequence: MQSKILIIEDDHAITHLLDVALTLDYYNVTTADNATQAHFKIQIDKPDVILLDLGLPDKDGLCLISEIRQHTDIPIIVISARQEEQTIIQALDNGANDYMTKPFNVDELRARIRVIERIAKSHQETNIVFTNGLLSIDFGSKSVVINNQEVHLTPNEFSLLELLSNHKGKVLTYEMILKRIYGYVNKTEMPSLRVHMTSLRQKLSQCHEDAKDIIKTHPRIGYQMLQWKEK
Briefly: EMSA. As to conditions: EMSA 25 C, 20 min, 20 ul, 1x binding buffer, 2.5% glycerol, 50 ng/ml poly(dI-dC), 0.05% NP-40; CymR/KdpE buffer: 20 mM Tris-HCl pH 7.5, 10 mM MgCl2, 100 mM ….

Data set [2] addresses T2, LacR (Staphylococcus aureus) (UniProt Q5HE08).
T2 sequence: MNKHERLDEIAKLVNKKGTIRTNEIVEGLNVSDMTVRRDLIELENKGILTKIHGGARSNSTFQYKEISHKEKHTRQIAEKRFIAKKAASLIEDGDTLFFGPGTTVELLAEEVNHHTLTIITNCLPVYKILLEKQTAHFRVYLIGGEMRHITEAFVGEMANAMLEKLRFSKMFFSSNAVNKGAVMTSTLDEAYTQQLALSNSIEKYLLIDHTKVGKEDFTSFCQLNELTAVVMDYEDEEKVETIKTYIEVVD
As to the kind of experiment: EMSA. Conditions: EMSA 25 C, 20 min, 20 ul, 1x binding buffer, 2.5% glycerol, 50 ng/ml poly(dI-dC), 0.05% NP-40; CymR/KdpE buffer: 20 mM Tris-HCl pH 7.5, 10 mM MgCl2, 100 mM …. For orientation: In EMSA bound probe runs differently from free probe, usually more slowly.

On to “GACATAACCTTCACCTCGATAGCAATATCATAATATTCTTCACAATTAAATGCTATAAAATTTATTTCTGCATACACATCTTAATGATTTCTTAATAACTAAGTTTGAAAATTAATATTTCTCTCATAAACAAGTTGTTACGATGTTGTTGTGTTGTAAGGAGGTTATGGCAATGCTCATCGTTTTATTACTGGTAGTTATTGCATTAGTTTTGTATTTATTTTATGCCTTAATTCGTAGTGAAAAATTTTAGAAATATATTAAGTGAGGGTTATCATGG (double strand) [kdpFABC promoter]”, for which the binding result in data set [1] is given as “binds”.

Regarding “GTAATCCATTGTTACCTCCCGATTACAAATTTTGTTCTATCTACTATTTAGCAAAGTAATAATACATCATATCACATTAAATTAATTACTTATGTCTTATATTTAACACTTAATTTAGCGATTACGCAAATGAATGATTTTTCTAAATATTTTATTCTAACTTTATCCGGAAATATTTGTTATACGTATAACTTGGAGAATGACTACTTGAAATTTAATGACGTATACAACAAACACCAC (double strand) [sigS promoter]”, the binding entry in data set [1] is reported as “binds”; in data set [2], “no binding”.
